The labels stand for the following.
B1: antibody 562 (antibody, V domains shown)
VH: QVQLVESGGGVVQPGRSLRLSCAASGFTFSSYAMHWVRQAPGKGLEWVAVISYDGSNKYYADSVKGRFTISRDNSKNTLYLQMNSLRAEDTAVYYCARASSGGYQGPFDPWGQGTLVTVSS
VL: QSALTQPASVSGSPGQSITISCTGTSSDVGGYNYVSWYQQHPGKAPKLMIYDVSNRPSGVSNRFSGSKSGNTASLTISGLQAEDEADYYCSSYTSSSTLLYVFGTGTKVTVLG
B2: antibody 506 (antibody, V domains shown)
VH: QITLKESGPTLVKPTQTLTLTCTFSGFSLSTSGVGVGWIRQPPGKALEWLALIYWDDDKRYSPSLKSRLTITKDTSKNQVVLTMTNMDPVDTATYYCAHHSLSSIFDYWGQGTLVTVSS
VL: QSALTQPASVSGSPGQSITISCTGTSSDVGDYNYVSWYQQHPGKAPKLMIYEVSNRPSGVSNRFSGSKSGNTASLTISGLQAEDEADYYCSSYTSSSTVFGGGTKLTVLG
B3: antibody 494 (antibody, V domains shown)
VH: EVQLVESGGGLVQPGGSLRLSCAASGFTVSSNYMSWVRQAPGKGLEWVSVIYSGGSTFYADSVKGRFTISRDNSKNTLYLQMNSLRAEDTAVYYCARDSGDQLLDYWGQGTLVTVSS
VL: DIQLTQSPSFLSASVGDRVTITCRASQGISSYLAWYQQKPGKAPKLLIYAASTLQSGVPSRFSGSGSGTEFTLTISSLQPEDFATYYCQQLNSYPPFTFGPGTKVDIKR
B4: antibody 292 (antibody, V domains shown)
VH: EVQLVESGGGLIQPGGSLRLSCAASGFTVSSNYMSWVRQAPGKGLEWVSVIYSGGSTYYADSVKGRFTISRDNSKNTLYLQMNSLRAEDTAVYYCARDLQGGGGPWGQGTLVTVSS
VL: AIQMTQSPSSLSASVGDRVTITCRASQGIRNDLGWYQQKPGKAPKLLIYAASSLQSGVPSRFSGSGSGTDFTLTISSLQPEDFATYYCLQDYNYPRTFGQGTKVEIKR
B5: antibody 481 (antibody, V domains shown)
VH: B4 VH with Y58F, D98E, L99V, Q100A, G102T, G103Y, G104D, P105Y
VL: B3 VL with L4M, F10S, L11V, Y32W, T53S, E70D, L91A, Y94F, P96G, F97G
B6: antibody 462 (antibody, V domains shown)
VH: QVQLVESGGGVVQPGRSLRLSCAASGFTFSSYGMHWVRQAPGKGLEWVAVIWYDGNNKYYADSVKGRFTISRDNSKNTLYLQMNSLRAEDTAVYYCAKDPTWFGELPSYYYYGMDVWGQGTTVTVSS
VL: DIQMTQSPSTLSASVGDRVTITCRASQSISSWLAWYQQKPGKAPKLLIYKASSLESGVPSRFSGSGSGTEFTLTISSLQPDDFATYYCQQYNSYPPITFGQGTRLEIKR
B7: antibody 419 (antibody, V domains shown)
VH: QVQLVQSGAEVKKPGASVKVSCKASGYTFTSYYMHWVRQAPGQGLEWMGIINPSGGSTSYAQKFQGRVTMTRDTSTSTVYMELSSLRSEDTAVYYCARDWTQSSGYDYYYGLDVWGQGTTVTVSS
VL: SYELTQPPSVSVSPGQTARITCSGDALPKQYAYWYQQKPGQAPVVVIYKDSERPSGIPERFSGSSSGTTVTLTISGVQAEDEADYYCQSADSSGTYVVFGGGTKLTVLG
B8: antibody 408 (antibody, V domains shown)
VH: QVQLVESGGGVVQPGRSLRLSCAASGFTFSSYAMHWVRQAPGKGLEWVAVISYDGSNKYYADSVKGRFTISRDNSRNTLYLQMNSLRAEDTAVYYCAKGADTPHYSGYDFLSVGYYYYGMDVWGQGTTVTVSS
VL: DIQMTQSPSSLSASVGDRVTITCRASQSISSYLNWYQQKPGKAPKLLIYAASSFQSGVPSRFSGSRSGTDFTLTISSLQPEDFATYYCQQSYSAPFTFGPGTKVDIKR
B9: antibody 445 (antibody, V domains shown)
VH: QVQLVQSGAEVKKPGASVKVSCKASGYTFTSYYMHWVRQAPGQGLEWMGIINPSGGSTSYAQKFQGRVTMTRDTSTSTVYMELSSLRSEDTAVYYCARDPTEVGATSEYYYYGMDVWGQGTTVTVSS
VL: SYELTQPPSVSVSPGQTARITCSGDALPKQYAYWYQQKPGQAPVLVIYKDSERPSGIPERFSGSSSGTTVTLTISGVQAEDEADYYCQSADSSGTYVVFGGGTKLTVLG
B10: antibody 328 (antibody, V domains shown)
VH: QVQLQESGPGLVKPSGTLSLTCAVSGGSISSSNWWSWVRQPPGKGLEWIGEIYHSGSTNYNPSLKSRVTISVDNSKNQFSLKLSSVTAADTAVYYCARESVAAAGISYYYYGMDVWGQGTTVTVSS
VL: DIQMTQSPSSLSASVGDRVTITCRASQGIRNDLGWYQQKPGKAPKRLIYAASSLQSGVPSRFSGSGSGTEFTLTVSGLQPEDFATYYCLQYNSSPLTFGGGTKVEIK
B11: antibody 351 (antibody, V domains shown)
VH: HVQLVESGGGVVQPGRSLRLSCAASGFISRNYGMEWVRQAPGQGLEWVAGIWYDGSKKYYADSVKGRFTISRDTSKNTLFLQMDSLRAEDTAVFYCATATKTFCGGDCPPGGMDVWGQGTTVTVST
VL: SYVLTQPPSVSVAPGKTAWITCVGNNIESESVHWYQQRPGQAPVLVIYYDSDRPSGIPERFFGSNSGNTATLTISRVEAGDEADYYCQVWDSNSDLMVFGGGTKLTVL
B12: antibody 333 (antibody, V domains shown)
VH: QVHLVESGGGVVLPGRSLRLSCSASQFIFSNYDMHWVRQSPGMGLEWVAGISSDGSDKYYIDSVRGRFTISRDNAKNTLFLQMNSLTTEDTAVYSCAKGGGKFGQYWGRGTLVTVSS
VL: AIQMTQSPSSLSASVGDRVTITCRASQVIRNDLAWFQQKPGEAPNLLVYSASNLQSGVPSRFSGSGSGTDFTLTISSLQPEDFATYYCLQDYSYPYTFGQGTKLDMK
B13: antibody 343 (antibody, V domains shown)
VH: QVQLVESGGDVVQPGTSLRLSCAASGFTFNNYGFHWVRQAPGKGLEWVALISSDGASTHYADSVKGRFTISRDSSVNTLYLQMNSLSLEDTAVYYCATGHCGTTCYYFDYWGQGTLVSVSS
VL: DIQVTQSPSYLSASVGDRVTITCRASQTISTFLQWYQQKVGKAPKLLIYAASTLQSGVPSRFSGSGSGTDFSLTISSLQPEDFATYYCQQSYSAPLSFGGGTKVEIK
B14: antibody 332 (antibody, V domains shown)
VH: QVTLRESGPALVKPTQTLTLTCTFSGFSLSTSGMCVSWIRQPPGKALEWLALIDWDDDKYYSTSLKTRLTISKDTSKNQVVLTMTNMDPVDTATYYCARIHDDILTGYHYVDYWGQGTLVTVSS
VL: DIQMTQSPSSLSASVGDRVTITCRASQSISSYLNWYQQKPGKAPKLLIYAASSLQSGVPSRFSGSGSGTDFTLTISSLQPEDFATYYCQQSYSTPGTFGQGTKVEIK
B15: antibody 570 (antibody, V domains shown)
VH: QVQLQESGPGLVKPSQTLSLTCTVSGGSISSGSYYWSWIRQPAGKGLEWIGRIYTSGSTNYNPSLKSRVTISVDTSKNQFSLKLSSVTAADTAVYYCAREGQWLYRFDYWGQGTLVTVSS
VL: not shown
B16: antibody 574 (antibody, V domains shown)
VH: QVQLVESGGGVVQPGRSLRLSCAASGFTFSSYAMHWVRQAPGKGLEWVAVISYDGSNKYYADSVKGRFTISRDNSKNTLYLQMNSLRAEDTAVYYCARTDRYYGSGAHFDYWGQGTLVTVSS
VL: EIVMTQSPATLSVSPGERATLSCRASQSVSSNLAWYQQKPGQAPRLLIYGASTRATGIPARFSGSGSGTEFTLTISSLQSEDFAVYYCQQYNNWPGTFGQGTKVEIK

Changes are numbered by the printed parent chain.

Results on 16 molecules are retold here after patent US20210292393A1 (published 2021).

The first assay addresses T1, SARS-CoV-2 spike protein (nCoV-S Spike Protein Trimer, NIH) (SARS-CoV-2, UniProt P0DTC2 14-1208).
T1 construct: also called S protein
Kind of assay: HT-SPR (Carterra LSA), mAb on chip, SARS-CoV-2 spike protein titrated, 37 C.
Usually Kd stands for the free concentration of one partner at which half of the binding sites on the other are occupied at equilibrium, for simple one-to-one binding. High values mean weaker binding, low ones tighter binding. Regarding B1, the affinity, expressed as Kd, was 0.138 nM.

Consider B2, for which the dissociation constant (Kd) amounted to 0.0693 nM.

Molecule B3 registered a Kd of 0.225 nM. This Kd is about 3.2-fold higher than that of the molecule before.

Molecule B4 returned an equilibrium dissociation constant (Kd) of 0.0786 nM.

Consider B5, for which binding was put at a Kd of 0.234 nM.

On to B6, for which binding was put at a Kd of 4.62 nM.

The target of the next assay is NCP-CoV (2019-nCoV) Spike Protein (S1 Subunit, His Tag) (SARS-CoV-2, UniProt P0DTC2 16-685). Kind of assay: HT-SPR (Carterra LSA), mAb on chip, S1 subunit (His tag) in solution, 25 C.
In the case of B7, the equilibrium dissociation constant (Kd) amounted to 235 nM. This lies in the sub-micromolar range.

Molecule B8 yielded a dissociation constant Kd of 171 nM.

B2 yielded a Kd of 90.9 nM.

The molecule B9 gave a Kd of 613 nM.

In the case of B3, binding was put at a Kd of 189 nM.

The molecule B4 gave a Kd of 118 nM.

For the molecule B5, the Kd came out at 170 nM.

A further assay has as its target T1, SARS-CoV-2 spike protein (nCoV-S Spike …). Kind of assay: HT-SPR (Carterra LSA), mAb on chip, SARS-CoV-2 spike protein titrated, 25 C.
With B1, the equilibrium dissociation constant (Kd) was 0.173 nM.

In turn, B2 registered an equilibrium dissociation constant (Kd) of 0.0491 nM.

In the case of B3, the dissociation constant Kd turned out to be 0.0835 nM.

In the case of B4, binding was put at a Kd of 0.0608 nM.

B5: the Kd came out at 0.118 nM.

B6 gave a dissociation constant (Kd) of 7.58 nM.

Another assay has as its target T2, SARS-CoV-2 full length spike protein (wild type) (SARS-CoV-2, UniProt P0DTC2 14-1208).
T2 construct: also called SARS-CoV-2 spike; S protein
Kind of assay: multiplexed bead assay, flow cytometry; column D.
Consider B10, for which the binding result is on record as “no binding”.

As for B11, the binding result is “no binding”.

As for B12, the binding result is given as “no binding”.

For B13, the binding result was “no binding”.

With B14, the binding result was “no binding”.

In a further assay the target is 2019 nCoV Spike Protein (RBD, His tag) (SARS-CoV-2, UniProt P0DTC2 329-520). Kind of assay: HT-SPR (Carterra LSA), mAb on chip, RBD (His tag) in solution, 25 C.
The molecule B2 yielded a Kd of 14.7 nM.

In turn, B3 yielded a Kd of 13.5 nM.

Turning to B4, binding was characterised by a dissociation constant (Kd) of 6.78 nM.

In turn, B5 yielded a Kd of 14.1 nM. This Kd lies about 2.1-fold higher than the previous one.

For another assay, the target named is SARS-CoV-2 spike protein (SARS-CoV-2, UniProt P0DTC2 14-1208). Kind of assay: HT-SPR, Carterra LSA; mAb coupled to chip, antigen injected; 1:1 fit.
One may read the koff as a measure of how fast the partners let go of each other. Lower therefore signals slow dissociation. Usually kon stands for a measure of how fast the partners come together. The low end stands for slower complex formation, the high end for faster complex formation. B15: the Kd stood at 0.0454 nM, the koff was found to be 1e-05 s⁻¹ and the on-rate constant (kon) is 220000 M⁻¹ s⁻¹.

In turn, B16 had a Kd of 2.28 nM, an off-rate (koff) of 0.0003 s⁻¹ and an association rate constant (kon) of 132000 M⁻¹ s⁻¹.
